In patent US20170275666A1, “Methods for Preparing Rebaudioside I and Uses” (The Coca-Cola Company, priority 2014, published 2017):

How the values were obtained:
Format in all cases: biochemical
[1] = Catalytic reaction with in-vivo produced UGT76G1, stevioside to rebaudioside A; conditions: 0.5 mM Stevioside, 2.5 mM UDP-glucose, thawed lysate, 30° C., HPLC (CAD)
Experimental: The total volume of the reaction was 5.0 mL with the following composition: 50 mM sodium phosphate buffer pH 7.2, 3 mM MgCl2, 2.5 mM UDP-glucose, 0.5 mM Stevioside and 500 μL of UGT76G1 thawed lysate. The reactions were run at 30° C. on an orbitary shaker at 135 rpm. For each sample, 460 μL of the reaction mixture was quenched with 40 μL of 2N H2SO4 and 420 μL of methanol/water (6/4). The samples were immediately centrifuged and kept at 10° C. before analysis by HPLC (CAD).

[2] = Directed evolution of UGT76G1, conversion of Rebaudioside D to Rebaudioside M (round 1); conditions: 0.5 mM Rebaudioside D, 2.5 mM UDP-Glucose, 100 μL fresh lysate, 30° C., pH 7.2
In short: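 UGT76G1 variants carrying 3-5 designed mutations were expressed in E. coli BL21(DE3) (pET30a+, 44 h at 20° C) and lysed. Lysate was reacted with 0.5 mM Reb D, 2.5 mM UDP-glucose, 3 mM MgCl2 in 50 mM phosphate pH 7.2 at 30° C; HPLC-CAD sampling at 2, 4, 7, 24 h gave conversion and initial rate.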

[3] = Directed evolution of UGT76G1, conversion of Rebaudioside D to Rebaudioside M (Round 2), normalized to Round1-Var94; conditions: round 2 clones; baseline clone Round1-Var94 defined as 100%; lysate, Rebaudioside D 0.5 mM, UDP-Glucose 2.5 mM, 30° C., pH 7.2, HPLC
Description: A list of 53 mutations was established containing different identified positive mutations from the first round and new mutations obtained by DNA2.0 ProteinGPS™ strategy. This list of mutations was subsequently used to design 92 variant genes that contained each 3 different mutations. After codon-optimized for expression in E. coli the genes were synthesized, subcloned in the pET30a+ plasmid and used for transformation of E. coli BL21 (DE3) chemically competent cells. The obtained cells were grown in Petri-dishes on solid LB medium in the presence of Kanamycin. Suitable colonies were selected and allowed to grow in liquid LB medium in tubes. Glycerol was added to the suspension as cryoprotectant and 400 μL aliquots were stored at −20° C. and at −80° C.
These storage aliquots of E. coli BL21(DE3) containing the pET30a+_UGT76G1var plasmids were thawed and added to LBGKP medium (20 g/L Luria Broth Lennox; 50 mM PIPES buffer pH 7.00; 50 mM Phosphate buffer pH 7.00; 2.5 g/L glucose and 50 mg/L of Kanamycine). This culture was allowed to shake in a 96 microtiter plate at 30° C. for 8 h.
3.95 mL of production medium containing 60 g/L of Overnight Express™ Instant TB medium (Novagen®), 10 g/L of glycerol and 50 mg/L of Kanamycin was inoculated with 50 μL of above described culture. In a 48 deepwell plate the resulting culture was allowed to stir at 20° C. […]

| Molecule | conversion of stevioside to rebaudioside A [1] | Conversion Reb D to Reb M after 24 h (%) [2] | initial rate (Reb M area/min) [2] | Normalized conversion Reb D to Reb M after 22 h. [3] | Normalized initial rate (0-4 h) [3] |
| --- | --- | --- | --- | --- | --- |
| UGT76G1: UDP-glycosyltransferase from Stevia rebaudiana (Genbank AAR06912.1), in-vivo produced lysate (protein, UniProt Q6VAB4 1-458, looked up, cell lysate, UDP-glycosyltransferase from Stevia rebaudiana (Genbank AAR06912.1), in-vivo produced lysate) UDP-glycosyltransferase 76G1: MENKTETTVRRRRRIILFPVPFQGHINPILQLANVLYSKGFSITIFHTNFNKPKTSNYPHFTFRFILDNDPQDERISNLPTHGPLAGMRIPIINEHGADELRRELELLMLASEEDEEVSCLITDALWYFAQSVADSLNLRRLVLMTSSLFNFHAHVSLPQFDELGYLDPDDKTRLEEQASGFPMLKVKDIKSAYSNWQILKEILGKMIKQTKASSGVIWNSFKELEESELETVIREIPAPSFLIPLPKHLTASSSSLLDHDRTVFQWLDQQPPSSVLYVSFGSTSEVDEKDFLEIARGLVDSKQSFLWVVRPGFVKGSTWVEPLPDGFLGERGRIVKWVPQQEVLAHGAIGAFWTHSGWNSTLESVCEGVPMIFSDFGLDQPLNARYMSDVLKVGVYLENGWERGEIANAIRRVMVDEEGEYIRQNARVLKQKADVSLMKGGSSYESLESLVSYISSL | almost complete conversion | – | – | – | – |
| UGT76G1var94: UGT76G1 variant, mutations Q266E_P272A_R334K_G348P_L379G; most active round 1 clone (protein, UniProt Q6VAB4 1-458, looked up, variant Q266E P272A R334K G348P L379G) UDP-glycosyltransferase 76G1: MENKTETTVRRRRRIILFPVPFQGHINPILQLANVLYSKGFSITIFHTNFNKPKTSNYPHFTFRFILDNDPQDERISNLPTHGPLAGMRIPIINEHGADELRRELELLMLASEEDEEVSCLITDALWYFAQSVADSLNLRRLVLMTSSLFNFHAHVSLPQFDELGYLDPDDKTRLEEQASGFPMLKVKDIKSAYSNWQILKEILGKMIKQTKASSGVIWNSFKELEESELETVIREIPAPSFLIPLPKHLTASSSSLLDHDRTVFEWLDQQAPSSVLYVSFGSTSEVDEKDFLEIARGLVDSKQSFLWVVRPGFVKGSTWVEPLPDGFLGERGKIVKWVPQQEVLAHPAIGAFWTHSGWNSTLESVCEGVPMIFSDFGGDQPLNARYMSDVLKVGVYLENGWERGEIANAIRRVMVDEEGEYIRQNARVLKQKADVSLMKGGSSYESLESLVSYISSL | – | 72.0% | 7.9E+07 Reb M area/min | 100% | 100% |
